Data: publication PMC2757162 (Journal of molecular biology, 2008)

Target: the molecule itself

B1: Herpes simplex virus type 1 SSB/recombination protein ICP8 (natural protein)
chain: METKPKTATTIKVPPGPLGYVYARACPSEGIELLALLSARSGDSDVAVAPLVVGLTVESGFEANVAVVVGSRTTGLGGTAVSLKLTPSHYSSSVYVFHGGRHLDPSTQAPNLTRLCERARRHFGFSDYTPRPGDLKHETTGEALCERLGLDPDRALLYLVVTEGFKEAVCINNTFLHLGGSDKVTIGGAEVHRIPVYPLQLFMPDFSRVIAEPFNANHRSIGEKFTYPLPFFNRPLNRLLFEAVVGPAAVALRCRNVDAVARAAAHLAFDENHEGAALPADITFTAFEASQGKTPRGGRDGGGKGAAGGFEQRLASVMAGDAALALESIVSMAVFDEPPTDISAWPLFEGQDTAAARANAVGAYLARAAGLVGAMVFSTNSALHLTEVDDAGPADPKDHSKPSFYRFFLVPGTHVAANPQVDREGHVVPGFEGRPTAPLVGGTQEFAGEHLAMLCGFSPALLAKMLFYLERCDGAVIVGRQEMDVFRYVADSNQTDVPCNLCTFDTRHACVHTTLMRLRARHPKFASAARGAIGVFGTMNSMYSDCDVLGNYAAFSALKRADGSETARTIMQETYRAATERVMAELETLQYVDQAVPTAMGRLETIITNREALHTVVNNVRQVVDREVEQLMRNLVEGRNFKFRDGLGEANHAMSLTLDPYACGPCPLLQLLGRRSNLAVYQDLALSQCHGVFAGQSVEGRNFRNQFQPVLRRRVMDMFNNGFLSAKTLTVALSEGAAICAPSLTAGQTAPAESSFEGDVARVTLGFPKELRVKSRVLFAGASANASEAAKARVASLQSAYQKPDKRVDILLGPLGFLLKQFHAAIFPNGKPPGSNQPNPQWFWTALQRNQLPARLLSREDIETIAFIKKFSLDYGAINFINLAPNNVSELAMYYMANQILRYCDHSTYFINTLTAIIAGSRRPPSVQAAAAWSAQGGAGLEAGARALMDAVDAHPGAWTSMFASCNLLRPVMAARPMVVLGLSISKYYGMAGNDRVFQAGNWASLMGGKNACPLLIFDRTRKFVLACPRAGFVCAASSLGGGAHESSLCEQLRGIISEGGAAVASSVFVATVKSLGPRTQQLQIEDWLALLEDEYLSEEMMELTARALERGNGEWSTDAALEVAHEAEALVSQLGNAGEVFNFGDFGCEDDNATPFGGPGAPGPAFAGRKRAFHGDDPFGEGPPDKKGDLTLDML
  binding result: binds
